B1: BAX-488 (single-cysteine, full-length human BAX S4C, C62S, C126S, labelled with Atto 488) (natural protein, UniProt Q07812 1-192, looked up)
chain: MDGCGEQPRGGGPTSSEQIMKTGALLLQGFIQDRAGRMGGEAPELALDPVPQDASTKKLSESLKRIGDELDSNMELQRMIAAVDTDSPREVFFRVAADMFSDGNFNWGRVVALFYFASKLVLKALSTKVPELIRTIMGWTLDFLRERLLGWIQDQGGWDGLLSYFGTPTWQTVTIFVAGVLTASLTIWKKMG
modifications: Atto 488 covalently attached to the single cysteine
notes: BAX, human, single-cysteine mutant (S4C, C62S, C126S); Plasmid pTYB1_hBAX-S4C,C62S, C126S from a previous study (doi 10.1038/ncomms9042); Labelling efficiency 84%; also called hBAX-S4C,C62S, C126S

Key:
[1] = biological target: BAK-488 (full-length mouse BAK L192K, F193S, Y196D, C154S, labelled with Atto 488) (mouse) (UniProt O08734); test: single-molecule TIRF brightness (stoichiometry) analysis; 1, 5 or 10 nM labelled protein incubated 1 h with EPC:CL 8:2 LUVs (150 mM NaCl, 10 mM HEPES/KOH, pH 7.4), activated by heat (43°C), or 1 nM BAK-488 by 2 nM cBid; proteoliposomes diluted with LUVs and fused into supported lipid bilayers on glass; corrected for partial labelling
[2] = biological target: the molecule itself; test: as above

Molecule	stoichiometry N [1]	stoichiometry N [2]
BAK-488 (full-length mouse BAK L192K, F193S, Y196D, C154S, labelled with Atto 488) (from UniProt O08734 1-209) (natural protein)	2	
B1		≤ 10

Source: publication PMC8901441, “The interplay between BAX and BAK tunes apoptotic pore growth to control mitochondrial-DNA-mediated inflammation” (Molecular Cell, 2022)
